Assay results published in the domain aggregation screens of Martell et al. (2025).

Test: soluble fraction after stress (log2 fold change); higher = more stays soluble; pooled small domains, quantitative proteomics
Conditions: stress: pH 4
How it was run: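 Aggregation propensity here comes from the fold change in the soluble amount of each small protein domain after acid stress, measured in pooled custom libraries by high-throughput quantitative proteomics. The acid stress was pH 4. On the log2 scale, higher values mean more of the domain stayed soluble.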

First: HMQSVPELDQQFKIAIENNDFIKLAQLKEQGYHPSKEVMQSLSNTTPNNTIIAVQKIFGLKA
Second: HMQSVSANSVQKQLADIIDGEDKTHPLSDRELTEKLVAQGVQISRRTVAKYREAMGIPGASGRKQ
The “soluble fraction (log2)” value of the first is lower: -0.185 for the first, 0.107 for the second.

Going from “HMQTAAANPSPESILQAREAAGLSQSEAGALIYSGLRSWQHWEWGTRRMHPGLFELFLKKTGQI” to “HMQTKMVYSDLVNSIKSEQVSSMLVSGNTVTVTLTNGDKAKVKIPSLDTLQADVGKEMNDQMDKGTLKQE”, the “soluble fraction (log2)” value rises from -1.02 to -0.123.

“HMQTKNYVYFNNTENWSTVNVYVWSSKDSTYMSWPGKAMESIGNNTYRFELPNGAEYAIFNNGSAQTVD” and “HMQTKSDMVYHRVREDIVNGVFAPGERLLISAVAKQYGVSEIPVREAFRVLSQEGFLKTRPNSGFVVS” are within 0.2 log units of each other in “soluble fraction (log2)” value: -0.185 for the first, -0.294 for the second.

“HMQTMTAGERREAILRELEQAQGPVSASALAKRFHVSRQAVVGDVAMLRALNSPIAATPRGYVLTR” and “HMQTMTDDQVMQYVISQQEKGATQQDIVSKLLQKGVTVDQMRRIRKKYEAQQSQPGALDLTGSS” are within 0.2 log units of each other in “soluble fraction (log2)” value: 0.0633 for the first, -0.0786 for the second.

“HMQTNEAIINQAVQAAEAQNITTRSQAVDALKANGMTEAQARQLAVQRGISYDQLINELFPME” and “HMQTPVTVGDTMPNLIGTPKRLLLELLNRTDITVKLTGDGYVTAQSPAAGTPIAKGMIIELSL” are within 0.2 log units of each other in “soluble fraction (log2)” value: 0.108 for the first, 0.19 for the second.

Going from “HMQTQVEVLVKYVLEDGTVYKEDKVSADIGAILDSGDLPMLSNDMKFIDDFLFYEVKESDNVIERKVAKLV” to “HMQTQYIVDTKTTLLVRTGPGKSNSQFGRLKNGETINVYAIKNGWAEISYNGKTGYVSEQYIKLA”, the “soluble fraction (log2)” value rises from -1.41 to 0.327.

“HMQTTDTGAIETIVDELMAANPDKVEAYRGGKTGLQGFFMGQVMKQLGGQGNPKVISAIVTEKLE” and “HMQTTPAGHELLIRYFANGNIRERGMMKDGKRNGIWIFYDESGMEIRKTKYKMGKIISDYDLN” are within 0.2 log units of each other in “soluble fraction (log2)” value: 0.257 for the first, 0.0593 for the second.

Compared with “HMQTTQQLIRNLRLKQAATLLADKRHSITEVATLTGFTHPTYFATAFREMFGVSPSEYMEQHI”, “HMQTYNQLKRGMTEWIQAGQKQKAYELFAGVAGQLSLSSAAGKKQYNELVTILNRAGFGIPLE” is higher in “soluble fraction (log2)” value: 0.126 for the first, at least 0.43 for the second.

Compared with “HMQVEMVLSQEAHEWLLQRGFIPEYGAREMDRVIAAHLKPLLMREILFGTLKAGGKVRVQVENGALKLQP”, “HMQVLSESDVEDIKAISGGDKAYDNLMEWAGSKLSKQDAKDYDDVLATGNKTAITFAVKALMAQYENAN” is higher in “soluble fraction (log2)” value: -1.74 for the first, -1.05 for the second.

Compared with “HMQVPFGFQRNPSTGTLEEKAEEQLIINQVLSLKNSGIGVSEISKRLGELSVSRIYRIINTAKKNAS”, “HMQVSDANQLTDVVKSIIKQYPVEVEKYKSGKKALFGFFMGKVMENLKGKSNPKILKNVLTEILD” is higher in “soluble fraction (log2)” value: -0.107 for the first, 0.263 for the second.

Compared with “HMQVSDTNTLEQFAKEVIEANPKAVEDYHQNPLAIGFLVGQLMKVSKGSANPQTGKEILEKLL”, “HMQVSDVTTIRALVEEVLSSSPQQLAQYRAGKLSLKGYFVGQVMKKGKGQLNAAAVNNLLDEIL” is higher in “soluble fraction (log2)” value: -0.185 for the first, 0.36 for the second.

First: HMQVSEQVQRLLDALENDTLTTKELMDRLGLKHRPTFRKNYLLPSMKLGLVEMTIPDKPNSSRQKYRRRQ
Second: HMQVTEVDYGTFMKMVEEKNVGEVEVGNSMIVFTDKDGKAIYKTGAMNDPNLTERLYNAGASFTKE
The “soluble fraction (log2)” value of the first is higher: 0.00707 for the first, -0.209 for the second.

Compared with “HMQVTGLTAENAHRVTMIREKGTDHPPVPFHFRKEHHGTGNYVHLYGNPEDRNELHSRDFKDWEAVAFK”, “HMQVVDWSQVDKEDYLLATKRRAVSTGELKFLLLNNLTYDLTQTRFFKGMDASYYYEGYNLYQTGE” is lower in “soluble fraction (log2)” value: 0.319 for the first, -0.693 for the second.

“HMQWGKVRRLPSGRYQASYVHKGTRYTAPETYTVQGRAHGWIESERRLIVTDTWTPPDTRPS” and “HMQWLDSIRSRLRVGQTISYFEPRENASSSGLIIELRRKRVLVLEIATQKRWLIEYAAINVDG” are within 0.2 log units of each other in “soluble fraction (log2)” value: -0.202 for the first, -0.325 for the second.

Going from “HMQWQPSEEAMQRLEQHGIPRAFSFSQLDAFVLQGQEQGSNRNDWNTRFFRFIKNQWVYAQN” to “HMQYDSYTVEEPAKLLDWLLAHLRQSRTKIKATLQGHGIKVNGKTVTQFDYPLEPGMKIRVSLTK”, the “soluble fraction (log2)” value rises from -1.17 to -0.622.

“HMQYKTRVINLSILEVGMVLGRDLINKDGKIIVKKDVAISDFLKDHLIGLSKIKEIEPQIYIKV” and “HMQYSIQVNKLLKAMREDVWYTANEILDLLKLKSKETLRKNYLDPAINNKLIILELPDKPTSRNQRYKI” are within 0.2 log units of each other in “soluble fraction (log2)” value: -0.452 for the first, -0.289 for the second.

Compared with “HMQYTQKTMYINDSYVNLRKSASTSSDIIMVVELNTKLTVIGEDGDWYKVKTSSGNAYVLKTLLSNEKKET”, “HMQYTTDEVRERVLSVLNQLLLRWIVREGKDMFNIQANAVEISEGIKGELNTELEKIGLAATGFQIDSV” is lower in “soluble fraction (log2)” value: -0.368 for the first, -0.678 for the second.

Going from “HMRADRLISMLMLLQARGKITAEELAVELGVSQRTIYRDIEALSFAGVPVYAERGPGGGIGLLEPY” to “HMRAEPNSNYSLAIIYKNRYDIAVKKKDAVKEVEYGKMVYEYLNKYVVLSGNKSAKYKKILNYFSSY”, the “soluble fraction (log2)” value rises from -1.21 to -0.445.

First: HMRAFTPSEAQVAHARRVMEAFWQHQREGHGAFALDGKMVDAPIVKAAARVLARAGLQDPNHPIHLA
Second: HMRALPFSFANRHGVLIREISDGVAHAVYRIGSSPLGLAEARRFVGMPLMLTPVAREAFDSLLQQTYEQG
The “soluble fraction (log2)” value of the first is higher: 0.0106 for the first, -0.612 for the second.

“HMRAPEIEAARSDLDVGQTVQIVRHLHGNQYEVFYRGAQWQAEAVGSSGANDAQTAVITGKNGNILLIQI” and “HMRAVPTKLAPFVEVLKAMLEADGHRPKAQRRTAKALHLELISRGYAGGYTRLTDYIRDWRQQQG” are within 0.2 log units of each other in “soluble fraction (log2)” value: -0.297 for the first, -0.411 for the second.

Going from “HMRDANYFINPIHEWQKRYEALRASFVDRLPAQAVAQRFGYTITYIHLLRHQFKSGKIDFSEPVPEG” to “HMRDFTQPQTASIGPRMREALARGTMTVEELREQFRTQEFPHESVRTAFLEELERVAAELGLA”, the “soluble fraction (log2)” value rises from -1.91 to -1.62.

First: HMRDISTDTSAWTFQDIKRYYDPQDLLTEKQVGQALSLIKGRNLNPLLNEVYIVAYKKKNGGAEFSLIV
Second: HMRDPLNTGFRQTLKDIVNSLPKNELYSPGVREEYIYPKIGVTSLGMEASMVLNGLISSRRKNIELKEKN
The “soluble fraction (log2)” value of the first is lower: -0.286 for the first, 0.179 for the second.

Going from “HMRDPVDKDNYLGDWDKNKTYPAGYVMTFGDKNYLALQEVPAGTKPGATDPDPFWVLDTGKTLKD” to “HMRDQARQFFIDTWAKFQRHDALTPLEEKTAAIIALHPEYHRVLQNPESFITTDWRPESGDINPFMHL”, the “soluble fraction (log2)” value falls from 0.163 to -0.803.

Compared with “HMRDSYEVEGRIASVSPAAGTFVVAGVTVDYTGARFVGGTVAQLAPGVKVEVEGRRLANGTLQAREIEFD”, “HMRDSYTFEDIEKLKDSYLQDSEKALEKLISIYEDTNQSLAIRTAALDIITDSQDPTFKLALEKIIS” is lower in “soluble fraction (log2)” value: -0.12 for the first, -0.751 for the second.

Going from “HMRDTAKTLLAMEVVGENNKKNLQAFGIQKGDQNYQTAVVVRLMQKALMEGDTSAIRLIGELTGD” to “HMRDTLSKQLLTEEMVLQFIREMREHDPGIGGEKLHAMYLGRFGRDYEYMVGRDKMEMIIAENNLNVR”, the “soluble fraction (log2)” value falls from -0.44 to -1.05.

First: HMRDYDFGNLLYKLRIESGYTQKDIADMLGVTDKAVSKWENGIAKPTTNNIKLLSTIYNVSVEELLNG
Second: HMRDYKTALQEWVQRTPGQPIAYRLVDELGPDHARVFVMEVTVGGQSAGQGRGRTKKEAEQLAARAALEKL
The “soluble fraction (log2)” value of the first is lower: -0.754 for the first, -0.0915 for the second.

Going from “HMREEIESVYKTLAVTEIPYIARGNSARLGSGIQTVYDFYRMEGMQVSKILGRNGSVLWLELHG” to “HMREEMYGLIGFITTSEVTDTFGQMEIKLENEPEMRINVRTNPGESLARGDAAKIISFNNSNGTFLVELTK”, the “soluble fraction (log2)” value falls from -0.159 to -0.564.

Compared with “HMREFQVMKQELQEMVHQRLDMSTELSDEAIGDVIDEVIMEKSRNMYISSVTKLTLRQELFNAIR”, “HMREGRERRLSQLLSYLRTHHILTRSEYVKLTGLSPTAASSELKTFVTAGHIVRKGIASHSTYRLPH” is higher in “soluble fraction (log2)” value: -2.14 for the first, 0.00826 for the second.

Compared with “HMREKLKEYVHLLFAGTVGKEDMEQEILQNTLDRFDDWVARGFSEEDAYRKAVSGIGDIDALLG”, “HMREPDPELTASIKSMAESNDQSERLVALAQLSEQRAVDPEVADQILLIALLDEDPIIRGQAVYA” is higher in “soluble fraction (log2)” value: -2.07 for the first, 0.0401 for the second.

Compared with “HMRERLPFGFAQSKKVVLLSTESDTPKVLSVNWPSLDLYAELKRVIGRAFLLEIVSEEEFQAQVSDAYQRD”, “HMREVGVPNLRGLTAEEAQIVLSNAGLNLRTEPIRRVHETITVGRIAEQDPMPDLTIRSQRSVTTWLSSGP” is higher in “soluble fraction (log2)” value: -1.48 for the first, -0.268 for the second.

“HMREVTVGSAVRLKKGAKTYSGGSLASFVYERNHQVTQLSGDRAVISFKGTVVAAVHKDDLIL” and “HMREVVLNRIGSVAVQRATTRTWEEWVVTLDAEGMRGKEHRDVVGHLLRAHELTSWWAQMVSVGYEQSRGQ” are within 0.2 log units of each other in “soluble fraction (log2)” value: -0.0626 for the first, -0.155 for the second.

First: HMREYRITAEEGHPRIDVFLAGRPEIGLSRSRIQALIDEGQVTLNGAMPKARQAVNPGDVIVVRVPDPE
Second: HMRFEWFDTLTDREKEIFGLIATGFDNQQIADRLQLAEQTVRNNISTIYSKLEVKDRFEIIRLANTI
The “soluble fraction (log2)” value of the first is higher: -0.336 for the first, -1.29 for the second.

First: HMRFKPLAEILAAVQTRYAGRVLDVELDRDQAGRNVYEVKLLAADGSRREIHIDAVTGKEVSL
Second: HMRGAIKMAEEQMAGHKKIGSISGTAPTQGELEKKFAMAAAQMGARYYVITGLSNNNYAFGNADIY
The “soluble fraction (log2)” value of the first is higher: 0.178 for the first, -0.194 for the second.

Going from “HMRGDEDTGVWPTPMKRAYIDSLLKGYPTGVTMIVKPPGASHTTKWMILDGANRARALRDFMNDEFMI” to “HMRGFTDFEHIEKEYLATIEKLNWPDGVTLPDKLEGEDTGTSFQVGYGDTRASNLWEYSWMK”, the “soluble fraction (log2)” value falls from -0.155 to -1.15.

With “HMRGIPEEVADVAIQWVARLDSNEISDADRAAFFAWLDASPINRWAYNDISESWAKLSILNEMGH” the “soluble fraction (log2)” value was -1.8.
